In patent publication US20130336988A1, “METHODS FOR TREATING EARLY STAGE OR MILD NEUROLOGICAL DISORDERS” (NEW YORK UNIVERSITY, priority 2010, published 2013):

T1: sortilin (Homo sapiens, UniProt Q99523)
T1 construct: expressed in transfected cells; host or cells: HEK 293 cells (proBDNF) / 293T cells (proNGF)
T1 sequence (Q99523 78-831): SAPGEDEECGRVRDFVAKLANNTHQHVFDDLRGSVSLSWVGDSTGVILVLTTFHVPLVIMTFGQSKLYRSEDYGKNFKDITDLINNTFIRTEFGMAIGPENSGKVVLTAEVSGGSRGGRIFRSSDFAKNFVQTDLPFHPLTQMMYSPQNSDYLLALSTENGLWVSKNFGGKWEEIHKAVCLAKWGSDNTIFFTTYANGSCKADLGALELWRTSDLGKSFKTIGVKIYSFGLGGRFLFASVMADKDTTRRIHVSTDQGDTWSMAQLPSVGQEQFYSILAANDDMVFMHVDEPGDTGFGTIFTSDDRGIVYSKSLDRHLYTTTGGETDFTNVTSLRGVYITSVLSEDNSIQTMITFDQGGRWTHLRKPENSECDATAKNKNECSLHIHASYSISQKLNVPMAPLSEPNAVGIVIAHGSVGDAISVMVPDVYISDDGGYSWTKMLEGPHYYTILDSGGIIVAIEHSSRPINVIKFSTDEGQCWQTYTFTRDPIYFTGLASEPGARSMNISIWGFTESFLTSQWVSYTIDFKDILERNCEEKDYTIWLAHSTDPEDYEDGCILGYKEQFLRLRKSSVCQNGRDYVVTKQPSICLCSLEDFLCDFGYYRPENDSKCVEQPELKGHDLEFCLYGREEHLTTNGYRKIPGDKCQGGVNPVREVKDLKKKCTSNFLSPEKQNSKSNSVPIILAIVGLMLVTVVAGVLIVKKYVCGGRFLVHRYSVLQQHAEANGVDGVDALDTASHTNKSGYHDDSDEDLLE

B1: proBDNF: murine proBDNF collected from supernatants of transfected 293 cells (protein)
chain: APMKEVNVHGQGNLAYPGVRTHGTLESVNGPRAGSRGLTTTSLADTFEHVIEELLDEDQKVRPNEENHKDADLYTSRVMLSSQVPLEPPLLFLLEEYKNYLDAANMSMRVRRHSDPARRGELSVCDSISEWVTAADKKTAVDMSGGTVTVLEKVPVSKGQLKQYFYETKCNPMGYTKEGCRGIDKRHWNSQCRTTQSYVRALTMDSKKRIGWRFIRIDTSCVCTLTIKRGR

Legend:
sortilin = molecular target: T1, sortilin; assay: Co-immunoprecipitation of proNT with sortilin in transfected 293 cells; type: binding; conditions: 293 cells co-transfected with proNT and myc-sortilin; IP-Western blot
Description: (§1) FIG. 2A-G. ProNTs induce growth cone collapse. (A, B) DIV3 hippocampal neurons transfected with LifeAct-RFP were imaged by time-lapse microscopy before (top panel) and starting approximately 2 min after (bottom panel) treatment with proBDNF (A) or proNGF (B). Actin dynamics stalled upon proNT treatment and subsequently the growth cone collapsed. Time is indicated in (min:sec). Scale bars, 10 μm. (C, D) DIV3 hippocampal cultures were fixed and stained for p75^NTR (C) and SorCS2 (D). Arrows highlight growth cones. Scale bars, 20 μm. (E) Brain sections from 6-week old C57/BL6 mice were stained for SorCS2. DG, dentate gyrus. Arrows highlight expression in dentate granule dendrites. Scale bar, 200 μm. (F) Both sortilin and SorCS2 interact with proBDNF. HEK 293 cells were transfected with proBDNF-HA and myc-sortilin or mycSorCS2, lysates were immunoprecipitated with anti-HA agarose and analyzed by Western blot with indicated antibodies. (G) IP-WB from 293T cells showing interactions between proNGF and sortilin and SorCS2.
(§2) The LifeAct sequence (RIEDL, J. et al., Nat Methods 5:605-607 (2008)) was cloned into the pEGFP-N1 backbone (Clontech) using the BglII and BamHI restriction sites. Trio constructs were described previously (FERRARO, F. et al., Mol Biol Cell 18:4813-4825 (2007)), human sortilin cDNA or human SorCS2 cDNA was subcloned into the pcDNA3.1 hygro expression vector (Invitrogen). […]

[1] = tested on: Cortical neurons expressing p75^NTR; assay: Growth cone collapse in cortical neurons; type: cell-based, mouse; conditions: cortical neurons expressing p75NTR (not shown)
Description: Primary hippocampal and cortical neurons were isolated from E15 C57BL/6 mouse embryos as previously described (PEREIRA, D. B. et al., Journal of Neuroscience 27:4859-4869 (2007)). Briefly, neurons were dissociated by incubation with 0.05% trypsin at 37° C. for 8 min followed by trituration with fire-polished glass Pasteur pipettes. Cells were plated on poly-D-lysine coated dishes and grown in Neurobasal medium containing B27, 0.5 mM glutamine (all Invitrogen) and 10 μM 5-fluorodeoxyuridine. Hippocampal neurons were transfected at DIV2 using Lipofectamine2000 (Invitrogen). For coverslips in a 24-well plate, 0.5 μg plasmid were mixed with 0.5 μl Lipofectamine2000, and for glass bottom dishes, 1.5 μg plasmid were mixed with 1.5 μl Lipofectamine2000. The complexes were added to the cells for 30-45 min, and then neurons were placed back into preconditioned media until analysis the following day. HT1080 cells were grown in DMEM/10% fetal bovine serum (both Invitrogen) and transfected using the AMAXA nucleofector (Lonza) according to manufacturer's instructions. 293FT cells were grown in DMEM/10% fetal bovine serum and transfected with Lipofectamine2000 according to manufacturer's instructions.

SorCS2 = molecular target: T2, SorCS2 (Homo sapiens, UniProt Q96PQ0); assay: Co-immunoprecipitation of proNT with SorCS2 in transfected 293 cells; type: binding; conditions: 293 cells co-transfected with proNT and myc-SorCS2; IP-Western blot
T2 construct: expressed in transfected cells; host or cells: HEK 293 cells (proBDNF) / 293T cells (proNGF)
T2 sequence (Q96PQ0 51-1159): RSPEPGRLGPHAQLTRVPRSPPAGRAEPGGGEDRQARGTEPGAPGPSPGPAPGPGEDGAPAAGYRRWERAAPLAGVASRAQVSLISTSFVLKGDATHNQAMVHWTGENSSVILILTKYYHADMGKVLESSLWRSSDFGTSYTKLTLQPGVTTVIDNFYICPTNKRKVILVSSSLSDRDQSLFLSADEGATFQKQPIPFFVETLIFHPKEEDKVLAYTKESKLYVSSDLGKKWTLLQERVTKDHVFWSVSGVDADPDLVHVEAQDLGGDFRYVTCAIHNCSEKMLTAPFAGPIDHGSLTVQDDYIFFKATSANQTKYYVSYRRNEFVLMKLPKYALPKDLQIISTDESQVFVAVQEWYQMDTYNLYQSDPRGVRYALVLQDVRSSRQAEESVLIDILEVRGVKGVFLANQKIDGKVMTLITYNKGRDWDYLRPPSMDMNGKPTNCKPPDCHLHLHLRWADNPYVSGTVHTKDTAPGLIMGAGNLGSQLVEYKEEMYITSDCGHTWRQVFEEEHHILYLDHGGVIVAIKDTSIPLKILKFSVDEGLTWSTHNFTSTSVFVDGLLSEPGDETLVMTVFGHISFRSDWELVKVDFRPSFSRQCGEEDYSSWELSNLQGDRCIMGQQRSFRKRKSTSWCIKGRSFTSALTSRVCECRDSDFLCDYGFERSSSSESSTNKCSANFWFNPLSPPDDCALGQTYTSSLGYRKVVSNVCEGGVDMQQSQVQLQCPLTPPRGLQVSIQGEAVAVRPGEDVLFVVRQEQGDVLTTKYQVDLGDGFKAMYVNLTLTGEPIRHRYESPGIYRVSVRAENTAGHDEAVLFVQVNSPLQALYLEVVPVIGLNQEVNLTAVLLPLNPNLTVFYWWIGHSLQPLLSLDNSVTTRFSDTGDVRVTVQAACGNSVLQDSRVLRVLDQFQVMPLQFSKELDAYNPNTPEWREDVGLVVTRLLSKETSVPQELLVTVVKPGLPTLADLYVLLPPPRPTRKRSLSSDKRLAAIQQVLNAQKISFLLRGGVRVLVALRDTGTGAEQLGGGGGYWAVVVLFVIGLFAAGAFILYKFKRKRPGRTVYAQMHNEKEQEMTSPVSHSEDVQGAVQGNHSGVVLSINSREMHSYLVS
Description: as §1, §2

Molecule | interaction with sortilin (co-immunoprecipitation) (sortilin) | growth cone collapse in cortical neurons [1] | interaction with SorCS2 (co-immunoprecipitation) (SorCS2)
proNGF: proneurotrophin precursor of nerve growth factor, produced in Sf9 cells and purified | co-immunoprecipitated with both sortilin and SorCS2 | displayed growth cone collapse | co-immunoprecipitated with both sortilin and SorCS2
B1 | interact | – | interact
